{"source": "the DeepSol protein solubility set"}
{"assay": "soluble on expression in E. coli; label from the status in PepcDB or PDB records"}
{"sequence": "MRGSHHHHHHGSKVRGKYDGPKINDYDKFYEDIWKKYVPQPVEVKQGSVYDYYDILEELGSGAFGVVHRCVEKATGRVFVAKFINTPYPLDKYTVKNEISIMNQLHHPKLINLHDAFEDKYEMVLILEFLSGGELFDRIAAEDYKMSEAEVINYMRQACEGLKHMHEHSIVHLDIKPENIMCETKKASSVKIIDFGLATKLNPDEIVKVTTATAEFAAPEIVDREPVGFYTDMWAIGVLGYVLLSGLSPFAGEDDLETLQNVKRCDWEFDEDAFSSVSPEAKDFIKNLLQKEPRKRLTVHDALEHPWLKGDHSNLTSRIPSSRYNKIRQKIKEKYADWPAPQPAIGRIANFSSLRKHRPQEYQIYDSYFDRKEAVPRFKLRPSLISS", "soluble on expression in E. coli": "soluble"}
{"sequence": "MRGSHHHHHHGSSQVADKDDPTNKFYQSVIQLGNGFLDVFTSFGGLVAEAFGFKSDPKKSDVKTYFTTVAAKLEKTKTDLNSLPKEKSDISSTTGKPDSTGSVGTAVEGAIKEVSELLDKLVKAVKTAEGASSGTAAIGEVVADADAAKVADKASVKGIAKGIKEIVEAAGGSEKLKAVAAAKGENNKGAGKLFGKAGAAAHGDSEAASKAAGAVSAVSGEQILSAIVTAADAAEQDGKKPEEAKNPIAAAIGDKDGGAEFGQDEMKKDDQIAAAIALRGMAKDGKFAVKDGEKEKAEGAIKGAAESAVRKVLGAITGLIGDAVSSGLRKVGDSVKAASKETPPALNK", "soluble on expression in E. coli": "soluble"}
{"sequence": "MRGSHHHHHHTDPALRAMRLVQLSRHSIAFPSPEGALREPNGLLALGGDLSPARLLMAYQRGIFPWFSPGDPILWWSPDPRAVLWPESLHISRSMKRFHKRSPYRVTMNYAFGQVIEGCASDREEGTWITRGVVEAYHRLHELGHAHSIEVWREDELVGGMYGVAQGTLFCGESMFSRMENASKTALLVFCEEFIGHGGKLIDCQVLNDHTASLGACEIPRRDYLNYLNQMRLGRLPNNFWVPRCLFSPQEGLCGR", "soluble on expression in E. coli": "soluble"}
{"sequence": "MRHALITAGTKGLGKQVTEKLLAKGYSVTVTYHSDITAMKKMKETYKNMEERLQFVQADVTKKEDLHKIVEEAISRFGKIDFLINNAGPYVFERKKLVDYEEDEWNEMIQGNLTAVFHLLKLVVPIMRKQNFGRIINYGFQGADSAPGWIYRSAFAAAKVGLVSLTKTVAYEEAEYGITANMVCPGDIIGEMKEATIQEARQLKERNTPIGRSGTGEDIARTISFLCEEDSDMITGTIIEVTGAVDVIHRHR", "soluble on expression in E. coli": "not soluble"}
{"sequence": "MRIEAHQVFNVSIQLCEFFNVDLSDRGYYQIRLRPRKTAEIGSVDISHDTEGDRDTGPKTSSNILLAHVYQGAAVSKTVEVTYQHEKFNLDDWFHISVQFNSTLNLCEPQKLEIEIELLYMDRYHPPQYESFVKITKRIVEIPLDPTRLVAAARSLYFDSTYLSAITMSVFSSLVMVATRQRKANASESASSTKSTKLRRVYNSSAHALLFATRSIQQFIVNNSRLINASVSVVVLDVQTEMKAALQQFDSSDHPTRCVETDVCEWSTKITLIYQQMLILFRKSKELNQQLLLIFDKQRRAVFREAFWINERPIDKCLIRTPVSVLEHYKSIIKVDYLRKLPRCTIFCEETDCPGEFCPIIFEDVFTRNSVGLLDLNNANRQVTIPNSASMPVVKAHEKHKSFREKLRNETRKLIHPRRKSLDCSQSLSRKLDGGVTSRSRTKTLKETTSTDGGGGLLLKNIPNSQENNFSPEFPGPSRDTATESPSCSSEPIASPSPSSEFGRCSAAGELFQDDGIPLISKESVTSEEIANALRTSVSADDVLSCRVTSSTDMKLTEEHPKDRMAEFELLREREAAKKMLRQQTNYEGHLYSEQSGRSTAGPVCTPIKSSLVIGDPVVRSKNKTHLVVFVHGLEGSQEDLVPFRCGLDQAIAAHYHCIQMEGRDFDEEPWAFEYLMSSANRSQTWADITTMAHNLLSEVREYVEEARNDIQRISFLAHSLGGVIVRSAVGLAPEVEMQWMIDRCYTLMTINSPHLGLAYVQKHIHWGVQFVKWWKKSRSMEQLSFRDSVDFASSFVYKTSLNNACGKFKNILLVGTPHDQLVPYMSSLLVPSKISSEDQSQFGEAYREMMTACLSSIQNSEKSENLVRYTTFHQLGSSNTQKITGRAAHVIALEDSVFIEKLFNISAVRYFV", "soluble on expression in E. coli": "not soluble"}
{"sequence": "MRIGHGFDVHAFGGEGPIIIGGVRIPYEKGLLAHSDGDVALHALTDALLGAAALGDIGKLFPDTDPAFKGADSRELLREAWRRIQAKGYTLGNVDVTIIAQAPKMLPHIPQMRVFIAEDLGCHMDEVNVKATTTEKLGFTGRGEGIACEAVALLMKAAK", "soluble on expression in E. coli": "not soluble"}
{"sequence": "MRIHNDKNDHGDNNEIMDYILEKYKPLVRKKTNALYLIGGENDDLIQEGMIGLFKAVRDYKSDKEASFYSFAQLCITRQLSSALEASNRKKHMPLNTYISFSQSDSDGTEFEEMLQDDIASPEQLLIEKEKFKEFKEQLWNKLSNMEKKVLQLYLEGNNYTSIAHMLGKSDKSIDNALSRIRQKLKRK", "soluble on expression in E. coli": "not soluble"}
{"sequence": "MRIHRRIKIKQKSVRIFIFDTKHRINDTKRQEDDEPHGLSALHFASRRPTCCACWMRRKKESTTTKVCVQDDCTTCSCTSASRCSRCSPCCSGCCSCTS", "soluble on expression in E. coli": "not soluble"}
{"sequence": "MRIKLIIVEGKTDESFFKVLLEKLYGFREAKKLTPEFPIGKWGFRIGEHPLVLEKDNIALVIIHAEGKQRIPKVLKSVLDSVKLGLLNVEEVYVVRDVDEGNDVFEWVLSFLREREVRVDNGAIVTEGVKIYPYGMGNLTLNEPFVKEKKELELSLAYLAKLDGILEKYRGSMRALSQDKGDKLTPKDVMHILSIANDYTGDCLSGLYEKYIGIMIHRNRELLIRFLSEVNLLPLLERMVG", "soluble on expression in E. coli": "soluble"}
{"sequence": "MRIPFPSIKYPLIAILRGLKPEETEGVVGALIETGFRAIEIPLNSPDPFRSIEIAARMAPADCLIGAGTVLSVEDVASLDAAGGKLMVSPNADAEVITAAREKGMVTMPGVLTPTEALVAAKAGATGLKFFPASIIGPSGINAIRTILPKELIIAAVGGVSDKNFSDYTSAGIRAFGLGTSLYKPGMTAAEVRERATVTLAAYDAAIGG", "soluble on expression in E. coli": "not soluble"}
{"sequence": "MRIRRRDEKENQEYKKGLWTVEEDNILMDYVLNHGTGQWNRIVRKTGLKRCGKSCRLRWMNYLSPNVNKGNFTEQEEDLIIRLHKLLGNRWSLIAKRVPGRTDNQVKNYWNTHLSKKLVGDYSSAVKTTGEDDDSPPSLFITAATPSSCHHQQENIYENIAKSFNGVVSASYEDKPKQELAQKDVLMATTNDPSHYYGNNALWVHDDDFELSSLVMMNFASGDVEYCL", "soluble on expression in E. coli": "not soluble"}
{"sequence": "MRISKMLVTELNIYPLKSARGIALKESAVSAEGLPGDRRAMLTDPSGHFITQRELPAIATVLARHEDGGMALSRERSGEIFARPSGQRMDVAVWKSIVSANIADDETNDTLSAWLGREVKLVFFDDAAKRIASLEWTGNETPVTFADGYQILVTTTASLAALNDNMRGNGEDAVGMERFRPNIVLETEEAWAEDRWAAIEIGGIRFDLVKPCARCIMTTQDQMTGSRDVPSPMKAMGRIRMSGDRRVPGPLFGWNVTPRGEGRLSVGDVARVVEERPEGWAIKRR", "soluble on expression in E. coli": "soluble"}
{"sequence": "MRIVPFGAAREVTGSAHLLLAGGRRVLLDCGMFQGKEEARNHAPFGFDPKEVDAVLLTHAHLDHVGRLPKLFREGYRGPVYATRATVLLMEIVLEDALKVMDEPFFGPEDVEEALGHLRPLEYGEWLRLGALSLAFGQAGHLPGSAFVVAQGEGRTLVYSGDLGNREKDVLPDPSLPPLADLVLAEGTYGDRPHRPYRETVREFLEILEKTLSQGGKVLIPTFAVERAQEILYVLYTHGHRLPRAPIYLDSPMAGRVLSLYPRLVRYFSEEVQAHFLQGKNPFRPAGLEVVEHTEASKALNRAPGPMVVLAGSGMLAGGRILHHLKHGLSDPRNALVFVGYQPQGGLGAEIIARPPAVRILGEEVPLRASVHTLGGFSGHAGQDELLDWLQGEPRVVLVHGEEEKLLALGKLLALRGQEVSLARFGEGVPV", "soluble on expression in E. coli": "soluble"}
{"sequence": "MRKIGIIGGTFDPPHYGHLLIANEVYHALNLEEVWFLPNQIPPHKQGRNITSVESRLQMLELATEAEEHFSICLEELSRKGPSYTYDTMLQLTKKYPDVQFHFIIGGDMVEYLPKWYNIEALLDLVTFVGVARPGYKLRTPYPITTVEIPEFAVSSSLLRERYKEKKTCKYLLPEKVQVYIERNGLYESLAAALEHHHHHH", "soluble on expression in E. coli": "soluble"}
{"sequence": "MRKLKYHEKKLIKKVNFLEWKREGNHRENEITYRYHMGSRDDYKKYSGLCRMVQKLTNIMKQMDPADPFRIQMTDMLLEKLYNMGVIPTRKSLTLTERLSVSSFCRRRLSTVLVHLKFAEHHKEAVTYIEQGHVRVGPETITDPAFLVTRNMEDFITWVDSSKIKRKVLEYNDTLDDYDMLA", "soluble on expression in E. coli": "not soluble"}
